Our source for the binding result and Kd values is PMC10955041, “Reverse-engineering the anti-MUC1 antibody 139H2 by mass spectrometry–based de novo sequencing” (Life Science Alliance, 2024).

Ends that are not written are not given here. * marks the point of attachment. Biotin = O=C1N[C@H]2[C@H](CS[C@H]2CCCCC(=O)*)N1

Conditions in all cases: both partners purified
Experiment [1] has as its target T1, MUC1 reporter construct, STn glycans (Homo sapiens (by repeat sequence), UniProt P15941, O-glycans of STn structure; 5 O-glycosylation sites).
T1 construct: also called MUC1 STn fragment; MUC1-STn; source: engineered HEK293 cells, gift from Christian Büll (Copenhagen Center for Glycomics), in PBS
The experiment in a line: far-Western, overlay or dot blot; immunoblot of MUC1 reporter constructs (10 ng per well, boiled in Laemmli buffer, 10% SDS gel, PVDF); 139H2 antibodies 1:1,000 in TSMT with 1% BSA, 1 h at RT; band intensities compared with a His-tag blot. For orientation: A western blot detects proteins with antibodies after separation by electrophoresis.

Experiment [2] has as its target T2, MUC1 reporter construct, DiST glycans (Homo sapiens (by repeat sequence), UniProt P15941, O-glycans of DiST structure; 5 O-glycosylation sites).
T2 construct: also called MUC1 DiST fragment; MUC1-DiST; source: engineered HEK293 cells, gift from Christian Büll (Copenhagen Center for Glycomics), in PBS
The description is as above.

The target of experiment [3] is T3, MUC1 reporter construct, Tn glycans (Homo sapiens (by repeat sequence), UniProt P15941, O-glycans of Tn structure; 5 O-glycosylation sites).
T3 construct: also called MUC1 Tn fragment; MUC1-Tn; source: engineered HEK293 cells, gift from Christian Büll (Copenhagen Center for Glycomics), in PBS
T3 sequence (P15941 whole entry, looked up, the tested form may be a part): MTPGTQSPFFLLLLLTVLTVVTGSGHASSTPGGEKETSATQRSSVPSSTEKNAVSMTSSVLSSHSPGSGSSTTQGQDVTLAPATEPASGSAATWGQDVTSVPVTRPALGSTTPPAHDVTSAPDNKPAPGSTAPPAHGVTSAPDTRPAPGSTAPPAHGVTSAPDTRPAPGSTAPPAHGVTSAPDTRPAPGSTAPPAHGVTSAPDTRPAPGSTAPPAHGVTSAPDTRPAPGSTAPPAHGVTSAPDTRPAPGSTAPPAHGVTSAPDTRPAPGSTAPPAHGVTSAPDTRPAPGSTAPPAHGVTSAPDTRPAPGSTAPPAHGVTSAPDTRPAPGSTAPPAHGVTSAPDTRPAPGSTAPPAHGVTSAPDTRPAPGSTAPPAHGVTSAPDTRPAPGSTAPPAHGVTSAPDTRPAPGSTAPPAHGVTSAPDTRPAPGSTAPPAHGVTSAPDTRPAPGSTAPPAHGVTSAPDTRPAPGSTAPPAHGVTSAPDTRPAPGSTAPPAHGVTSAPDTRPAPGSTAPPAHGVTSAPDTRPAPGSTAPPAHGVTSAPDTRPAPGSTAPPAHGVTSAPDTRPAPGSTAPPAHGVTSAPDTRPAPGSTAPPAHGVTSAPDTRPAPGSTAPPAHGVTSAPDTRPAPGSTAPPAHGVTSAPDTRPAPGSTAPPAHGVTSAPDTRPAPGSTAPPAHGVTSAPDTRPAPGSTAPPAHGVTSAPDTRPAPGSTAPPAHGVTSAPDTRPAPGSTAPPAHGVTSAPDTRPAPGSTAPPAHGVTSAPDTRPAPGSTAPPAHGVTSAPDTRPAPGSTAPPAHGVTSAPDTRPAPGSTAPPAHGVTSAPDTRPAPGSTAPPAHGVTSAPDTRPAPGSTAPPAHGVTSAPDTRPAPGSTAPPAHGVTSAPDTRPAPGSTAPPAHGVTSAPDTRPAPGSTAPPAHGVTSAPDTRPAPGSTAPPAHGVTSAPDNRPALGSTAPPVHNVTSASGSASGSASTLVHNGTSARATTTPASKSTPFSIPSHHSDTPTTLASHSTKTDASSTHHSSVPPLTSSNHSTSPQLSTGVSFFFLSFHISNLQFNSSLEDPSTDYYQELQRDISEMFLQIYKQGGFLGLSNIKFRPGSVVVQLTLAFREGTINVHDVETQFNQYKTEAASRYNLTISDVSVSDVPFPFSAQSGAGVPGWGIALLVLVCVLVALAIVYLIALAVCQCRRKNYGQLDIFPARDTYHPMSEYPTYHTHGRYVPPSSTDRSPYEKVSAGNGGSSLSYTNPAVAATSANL
Described as above.

For experiment [4], the target named is T4, MUC1 reporter construct, WT Core 2/ST glycans (Homo sapiens (by repeat sequence), UniProt P15941, O-glycans of WT Core 2/ST structure; 5 O-glycosylation sites).
T4 construct: also called MUC1 WT fragment; MUC1-WT; source: engineered HEK293 cells, gift from Christian Büll (Copenhagen Center for Glycomics), in PBS
T4 sequence (P15941 whole entry, looked up, the tested form may be a part): as above
The experiment is described as above.

Experiment [5] deals with T5, synthetic MUC1 epitope peptide APDTRPAPG (synthetic; human MUC1 VNTR sequence).
T5 construct: also called MUC1 peptide; source: synthetic peptide, bought: GenScript
T5 chain: APDTRPAPG
The experiment in a line: crystal structure; Fab and peptide mixed 1:2.5, 3.8 mg/ml in 50 mM Tris pH 8.0, 150 mM NaCl; sitting drop at 20°C; 2.5 Å.

For experiment [6], the target named is T6, N-terminally biotinylated synthetic MUC1 peptide biotin-GGS-APDTRPAPG (synthetic; human MUC1 VNTR sequence).
T6 construct: short peptide linker for immobilization to the SPR substrate; occurs in every repeat; also called biotinylated MUC1 peptide; surface-immobilized MUC1 peptide; source: synthetic peptide, bought: GenScript
T6 chain: Biotin-GGSAPDTRPAPG
The experiment in a line: SPR; biotinylated peptide immobilised on a streptavidin chip (P-Strep), IBIS-MX96; 150 mM NaCl, 25 mM Hepes, 0.005% Tween-20; Fab as analyte, 10 twofold dilutions from 7.88 uM, kinetic titration without regeneration, 6-min association; equilibrium data fitted to a one-site (Langmuir) model.

T2 sequence (P15941 whole entry, looked up, the tested form may be a part): as above
T1 sequence (P15941 whole entry, looked up, the tested form may be a part): as above

B1: hybridoma-derived 139H2 IgG (antibody, V domains shown)
VH: QVQLQQSGAELVKPGASVKLSCKASGYTFTNYYMYWVLQRPGQGLEWIGEINPSNGGTTFNEKFKNKATLTVDKSSSTAYMQLNSLTSEDSAVYYCTRSRYGNYVNYGMDYWGQGTSVTVSS
VL: DIVMSQSPSSLAVSVGEKVTMSCKSSQSLLYSNTQKNYLAWYQQKPGQSPKLLIYWASTRESGVPDRFTGSGSGTDFTLTISSVKAENLAVYYCQQYYRYPPTFGGGTKLELK
notes: as the heavy-chain variable domain of m1 (IGHV1-53); as the light-chain variable domain of m1 (IGKV8-30); mouse kappa light-chain constant region; Mouse IgG1, kappa; also called original hybridoma-derived 139H2; 139H2 WT; source: hybridoma culture supernatant (gift, NKI), purified (Protein G Sepharose); copies: 2 + 2
For B1, the binding result in experiment [1], in experiment [2], in experiment [3] and in experiment [4] was “binds” throughout.

B2: recombinant 139H2 Fab fragment (Fab, V domains shown)
VH: B1 VH
VL: B1 VL
notes: as the heavy-chain variable domain of m1 (IGHV1-53); mouse Ig gamma-1 (IGHG1) Fab constant region; as the light-chain variable domain of m1 (IGKV8-30); mouse kappa light-chain constant region, as in m1; also called monovalent Fab fragment; anti-MUC1 Fab; source: HEK293 cells (ImmunoPrecise Antibodies), culture supernatant, purified (HisTrap Excel, Superdex 200 SEC)
Turning to B2, in experiment [5], the binding result is reported as “binds”. Moreover, in experiment [6], binding was characterised by a dissociation constant (Kd) of 4.5 µM.

B3: recombinant (reverse-engineered) 139H2 IgG (antibody, V domains shown)
VH: B1 VH
VL: B1 VL
notes: also in PDB 8P6I; standard mouse Ig gamma-1 (IGHG1) constant region, linker and Fc region, UniProt P01868.1; mouse kappa light-chain constant region (kappa light-chain backbone); Mouse IgG1, kappa; also called synthetic recombinant 139H2; recombinant 139H2; source: HEK293 cells (ImmunoPrecise Antibodies), culture supernatant, purified (HisTrap Excel); copies: 2 + 2
B3: the binding result in experiment [1], in experiment [2], in experiment [3] and in experiment [4] was “binds” throughout.

In general, Kd refers to the free concentration of one partner at which half of the binding sites on the other are occupied at equilibrium, for simple one-to-one binding. Higher therefore signals a looser complex.
